Measurements taken from patent US20160046728A1 (HENOGEN S A, published 2016).

Experiments:
[1] = biological target: T1, high molecular weight kininogen (UniProt P01042 19-644); test: SPR (BIAcore 3000), Ir-CPI immobilized on CM5 chip, factor injected as analyte
T1 construct: also called HMWK
T1 sequence (looked up): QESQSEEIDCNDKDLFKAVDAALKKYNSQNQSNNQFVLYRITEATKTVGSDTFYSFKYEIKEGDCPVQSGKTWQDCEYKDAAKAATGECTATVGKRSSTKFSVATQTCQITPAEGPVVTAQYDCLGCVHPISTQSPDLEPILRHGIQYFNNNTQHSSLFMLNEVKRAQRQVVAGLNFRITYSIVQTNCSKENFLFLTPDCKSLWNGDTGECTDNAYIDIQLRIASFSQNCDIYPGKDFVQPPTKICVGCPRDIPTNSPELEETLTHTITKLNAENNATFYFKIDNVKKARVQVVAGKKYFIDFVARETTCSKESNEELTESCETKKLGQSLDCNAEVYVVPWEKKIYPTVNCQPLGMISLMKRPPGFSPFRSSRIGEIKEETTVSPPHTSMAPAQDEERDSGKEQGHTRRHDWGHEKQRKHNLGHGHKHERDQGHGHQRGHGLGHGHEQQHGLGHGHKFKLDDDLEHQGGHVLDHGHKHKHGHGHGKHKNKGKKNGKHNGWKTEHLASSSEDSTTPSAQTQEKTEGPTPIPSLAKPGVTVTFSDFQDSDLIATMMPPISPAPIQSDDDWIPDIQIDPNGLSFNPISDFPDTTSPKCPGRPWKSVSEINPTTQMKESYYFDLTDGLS
Procedure: (§1) The interaction between Ir-CPI and coagulation or fibrinolytic factors was monitored using a BIAcore 3000 instrument (BIAcore AB, Sweden). Ir-CPI (15 μM) was immobilized on the surface of a CM5 sensor chip in 10 mM acetate buffer, pH 5.0, by the amine coupling procedure according to the manufacturer's instructions. 1500 resonance units (RU) of immobilized Ir-CPI were used for the assay. To subtract the non-specific component from the apparent binding response, a blank flow cell was prepared using the same immobilizing procedure without Ir-CPI. Binding analyses were carried out using HBS buffer (HEPES 10 mM, NaCl 150 mM, EDTA 3 mM; pH 7.4 with 0.005% surfactant P20) as running buffer at 25° C. 100 μl of each analyte (100 nM) was injected on the sensor chip at a flow rate of 70 μl/min Association was monitored during an 84 s injection of analyte. Dissociation was monitored for 3 min after return to the running buffer.
(§2) The ability of Ir-CPI to bind a (co)factor of coagulation or fibrinolysis was evaluated by surface plasmon resonance. […] Moreover, the kinetics of interaction between Ir-CPI and the four target factors (XIIa, XIa, plasmin and kallikrein) were measured after a new immobilization of Ir-CPI. […] Interaction kinetics were determined for each analyte, at 6 different concentrations (from 5 nM to 300 nM). The kinetic data obtained were individually processed with BIA evaluation software in order to determine the kinetics constants.

thrombin = biological target: T2, thrombin (UniProt P00734 328-622); test: as above
T2 construct: also called factor IIa; IIa
Procedure: as §1, §2

factor IX = biological target: T3, factor IX (UniProt P00740 47-461); test: as above
T3 construct: also called fIX
Procedure: as §1, §2

plasminogen = plasminogen (UniProt P00747 20-810); test: as above
Procedure: as §1, §2

factor VIIa = biological target: T4, factor VIIa (UniProt P08709 61-466); test: as above
T4 construct: In the amidolytic and reconstituted assays it was used with tissue factor ('FT-FVIIa', 'tissue factor complex/factor VIIa'); In SPR it is printed only as 'fVIIa'; also called fVIIa; FVIIa
T4 sequence (looked up): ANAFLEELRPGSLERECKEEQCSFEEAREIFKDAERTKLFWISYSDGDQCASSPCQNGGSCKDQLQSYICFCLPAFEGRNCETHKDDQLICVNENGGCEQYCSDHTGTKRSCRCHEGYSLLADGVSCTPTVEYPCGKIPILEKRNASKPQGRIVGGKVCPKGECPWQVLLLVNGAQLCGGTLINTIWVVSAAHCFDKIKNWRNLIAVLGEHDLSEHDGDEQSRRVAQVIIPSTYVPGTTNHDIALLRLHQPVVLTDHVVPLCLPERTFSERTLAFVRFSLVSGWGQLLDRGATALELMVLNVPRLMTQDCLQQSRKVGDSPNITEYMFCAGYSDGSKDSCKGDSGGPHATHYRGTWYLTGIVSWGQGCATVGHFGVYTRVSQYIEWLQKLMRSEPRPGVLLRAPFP
Procedure: as §1, §2

t-PA = t-PA (UniProt P00750 36-562); test: as above
Procedure: as §1, §2

factor X = biological target: T5, factor X (UniProt P00742 41-488); test: as above
T5 construct: also called fX
Procedure: as §1, §2

plasma kallikrein = plasma kallikrein (UniProt P03952 20-638); test: SPR kinetics, Ir-CPI immobilized (about 200 RU), analyte at 6 concentrations from 5 nM to 300 nM
Procedure: Interaction kinetics were determined, for each analyte, with 6 different concentrations (from 5 nM to 300 nM). Binding data were analyzed using BIA evaluation software to determine the kinetic constants.
The ability of Ir-CPI to bind a (co)factor of coagulation or fibrinolysis was evaluated by surface plasmon resonance. […] Moreover, the kinetics of interaction between Ir-CPI and the four target factors (XIIa, XIa, plasmin and kallikrein) were measured after a new immobilization of Ir-CPI. […] Interaction kinetics were determined for each analyte, at 6 different concentrations (from 5 nM to 300 nM). The kinetic data obtained were individually processed with BIA evaluation software in order to determine the kinetics constants. […] FIG. 9 represents sensorgrams for interactions between coagulation factors and immobilized Ir-CPI measured by surface plasmon resonance. Ir-CPI was immobilized onto the surface of a sensor chip CM5 at level of 1500 resonance units (RUs). Contact factors (100 nM final concentration) were injected at a flow rate of 70 μl/min in HBS buffer, and association was monitored. After return to buffer flow, dissociation was monitored during 84 s. The sensor chip surface was regenerated by a pulse injection of 25 mM NaOH after each experiment.

factor XIa = factor XIa (UniProt P03951 19-625); test: cell-based or functional assay
factor XIIa = biological target: T6, factor XIIa (UniProt P00748 20-615, limits assumed); test: cell-based or functional assay
T6 sequence (looked up): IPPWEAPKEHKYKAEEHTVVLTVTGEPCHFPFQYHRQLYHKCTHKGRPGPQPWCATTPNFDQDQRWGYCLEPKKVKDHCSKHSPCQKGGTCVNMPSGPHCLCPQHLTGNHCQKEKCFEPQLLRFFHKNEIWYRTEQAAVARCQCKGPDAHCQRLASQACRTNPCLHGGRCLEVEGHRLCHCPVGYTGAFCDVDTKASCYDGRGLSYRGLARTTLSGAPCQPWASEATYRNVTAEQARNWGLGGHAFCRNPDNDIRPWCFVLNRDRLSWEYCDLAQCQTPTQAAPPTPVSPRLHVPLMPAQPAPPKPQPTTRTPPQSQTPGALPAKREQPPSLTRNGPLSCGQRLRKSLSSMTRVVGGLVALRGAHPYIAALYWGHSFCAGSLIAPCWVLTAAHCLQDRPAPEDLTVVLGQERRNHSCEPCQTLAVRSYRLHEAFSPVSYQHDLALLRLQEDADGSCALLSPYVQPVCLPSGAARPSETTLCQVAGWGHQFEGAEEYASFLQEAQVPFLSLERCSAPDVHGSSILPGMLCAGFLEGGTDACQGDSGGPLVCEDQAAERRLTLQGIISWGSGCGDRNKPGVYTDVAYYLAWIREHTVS

Sequence of plasminogen (P00747 20-810 limits assumed): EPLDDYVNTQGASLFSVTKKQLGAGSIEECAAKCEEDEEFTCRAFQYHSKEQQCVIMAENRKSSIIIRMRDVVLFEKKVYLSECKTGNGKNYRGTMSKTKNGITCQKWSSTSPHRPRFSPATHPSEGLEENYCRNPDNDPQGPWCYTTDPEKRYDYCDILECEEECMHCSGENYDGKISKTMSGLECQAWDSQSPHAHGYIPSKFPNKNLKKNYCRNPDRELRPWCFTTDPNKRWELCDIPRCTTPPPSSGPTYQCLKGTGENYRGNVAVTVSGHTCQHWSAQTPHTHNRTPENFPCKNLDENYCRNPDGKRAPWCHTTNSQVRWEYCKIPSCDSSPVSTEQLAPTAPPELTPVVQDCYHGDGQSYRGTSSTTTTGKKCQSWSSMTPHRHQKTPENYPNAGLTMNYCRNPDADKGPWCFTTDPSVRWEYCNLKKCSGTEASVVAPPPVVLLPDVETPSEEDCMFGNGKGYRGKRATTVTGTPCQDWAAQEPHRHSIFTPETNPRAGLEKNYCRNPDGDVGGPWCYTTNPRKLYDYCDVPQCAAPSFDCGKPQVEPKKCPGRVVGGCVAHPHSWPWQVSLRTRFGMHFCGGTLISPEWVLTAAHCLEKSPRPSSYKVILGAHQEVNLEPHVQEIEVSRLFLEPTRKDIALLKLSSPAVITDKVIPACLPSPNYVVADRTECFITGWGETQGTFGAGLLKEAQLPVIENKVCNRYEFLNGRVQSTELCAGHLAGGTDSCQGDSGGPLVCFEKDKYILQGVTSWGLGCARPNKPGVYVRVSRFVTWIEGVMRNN
Sequence of t-PA (P00750 36-562 limits assumed): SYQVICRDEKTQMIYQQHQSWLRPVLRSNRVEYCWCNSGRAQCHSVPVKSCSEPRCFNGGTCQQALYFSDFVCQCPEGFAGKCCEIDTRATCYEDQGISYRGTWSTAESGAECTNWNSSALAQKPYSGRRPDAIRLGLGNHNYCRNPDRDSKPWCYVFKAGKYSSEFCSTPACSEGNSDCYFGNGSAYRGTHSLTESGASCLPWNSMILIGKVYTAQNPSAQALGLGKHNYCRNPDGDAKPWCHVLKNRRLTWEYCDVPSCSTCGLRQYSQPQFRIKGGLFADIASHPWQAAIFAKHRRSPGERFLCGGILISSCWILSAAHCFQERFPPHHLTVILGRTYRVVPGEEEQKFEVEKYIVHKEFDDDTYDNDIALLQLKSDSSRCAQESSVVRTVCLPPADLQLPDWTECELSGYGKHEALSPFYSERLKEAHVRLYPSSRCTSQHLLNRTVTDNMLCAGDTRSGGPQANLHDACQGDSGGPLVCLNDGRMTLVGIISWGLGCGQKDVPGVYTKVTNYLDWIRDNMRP
Sequence of plasma kallikrein (P03952 20-638 limits assumed): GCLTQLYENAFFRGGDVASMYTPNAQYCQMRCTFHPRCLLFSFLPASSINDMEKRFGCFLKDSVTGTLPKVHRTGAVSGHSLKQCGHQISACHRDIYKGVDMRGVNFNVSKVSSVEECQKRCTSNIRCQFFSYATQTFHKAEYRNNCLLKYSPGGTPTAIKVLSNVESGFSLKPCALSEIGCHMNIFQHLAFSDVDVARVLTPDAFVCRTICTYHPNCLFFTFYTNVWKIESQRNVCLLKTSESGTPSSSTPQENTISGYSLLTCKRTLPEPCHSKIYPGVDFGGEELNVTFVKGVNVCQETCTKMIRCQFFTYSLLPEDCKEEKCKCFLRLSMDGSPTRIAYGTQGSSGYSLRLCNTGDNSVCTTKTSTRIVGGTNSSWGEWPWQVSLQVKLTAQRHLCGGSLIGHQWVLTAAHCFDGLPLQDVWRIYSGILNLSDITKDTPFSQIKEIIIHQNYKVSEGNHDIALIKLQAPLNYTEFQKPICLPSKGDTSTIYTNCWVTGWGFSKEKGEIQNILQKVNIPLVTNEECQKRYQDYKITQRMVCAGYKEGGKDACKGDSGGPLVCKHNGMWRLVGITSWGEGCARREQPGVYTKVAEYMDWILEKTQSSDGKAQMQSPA

B1: Ir-CPI (Ixodes ricinus Contact Phase Inhibitor), recombinant (other)
chain: ANHKGRGRPAKCKLPPDDGPCRARIPSYYFDRKTKTCKEFMYGGCEGNENNFENITTCQEECRAKKV
notes: Kunitz-type protein; Made in E. coli as a GST fusion (pGEX-6P-1), released with PreScission protease and gel filtered; In the SPR assay it was amine-coupled to a CM5 chip; also called ID; NO; 7 without its peptide signal
binding result [1]: no binding (tested: 100 nM)
binding result (thrombin): no binding (tested: 100 nM)
binding result (factor IX): no binding (tested: 100 nM)
binding result (plasminogen): no binding (tested: 100 nM)
binding result (factor VIIa): no binding (tested: 100 nM)
binding result (t-PA): no binding (tested: 100 nM)
binding result (factor X): no binding (tested: 100 nM)
Kd (plasma kallikrein): 200 nM
EC50 (µg/mL) of inhibition of FXI coagulation activity, aPTT-based assay in human plasma with FXI deficient plasma (factor XIa): 1.41 µg/mL
EC50 (µg/mL) of inhibition of FXII coagulation activity, aPTT-based assay in human plasma with FXII deficient plasma (factor XIIa): 1.38 µg/mL
